Laboratory results reported in patent US20110123523A1 (MERRIMACK PHARMACEUTICALS, published 2011).
Read-outs that look alike come from different tables or passages of the source. Values belong to the binder of their own block, whether it stands above or below them.

Experiments:
[1] = target: T1, ErbB3 receptor, wild type full length, on cells (MALME-3M, ADRr/AdrR, CHO K1 transfectants) (human, UniProt P21860 20-1342); assay: flow cytometry, biotinylated heregulin EGF + streptavidin-PE; cells MALME3 according to the sheet's title and legend paragraph 42 (Example 10 names ADRr cells)
T1 construct: whole, on cells; also called HER3
Protocol: Cells were then washed twice with 500 μl BD stain buffer and incubated with 100 μl of a 1:200 dilution of streptavidin-PE (PE=phycoerythrin) (Invitrogen) in BD stain buffer for 45 minutes. Finally, cells were washed twice, resuspended in 300 μl of BD stain buffer and analyzed in a FACScalibur flow cytometer.

[2] = target: T1, ErbB3 receptor, wild type full length, …; assay: cell binding assay, flow cytometry on MALME-3M cells, one-site binding fit
Protocol: (§1) The concentrations of the diluted antibody ranged from 200 nM to 0.4 nM.
(§2) Aliquoted cells in the 96-well plate were incubated with the protein dilutions for 30 minutes at room temperature on a platform shaker and washed 3 times with 300 μl BD stain buffer. […] Finally, cells were washed twice, pelleted and resuspended in 250 μl BD stain buffer+0.5 μg/ml propidium iodide. Analysis of 10,000 cells was done in a FACScalibur flow cytometer using the FL4 channel. MFI values and the corresponding concentrations of the anti-ErbB3-antibodies were plotted on the y-axis and x-axis, respectively. The KD of the molecule was determined by GraphPad Prism using the one-site binding model for a non-linear regression curve.
(§3) The KD value was calculated based on the formula Y=Bmax*X/KD+X (Bmax=fluorescence at saturation. X=antibody concentration. Y=degree of binding).

[3] = target: T2, ErbB3 as used in the surface plasmon resonance (Flexchip) and KinExA assays (human, UniProt P21860 20-643, limits assumed); assay: surface plasmon resonance (Flexchip assay); Flexchip SPR
[4] = target: T1, ErbB3 receptor, wild type full length, …; assay: flow cytometry on MALME-3M cells, Alexa 647 goat anti-human IgG, one-site binding fit
Protocol: as §1, §2, §3

[5] = target: T3, full-length ErbB3 L102A mutant on CHO K1 cells (human, UniProt P21860 20-1342); assay: FACS on CHO K1 cells stably expressing full-length ErbB3 L102A; Ab #6 directly labelled with Alexa 488 (FL1)
T3 construct: whole, on cells; Numbering as for m15
Description: (§4) CHO K1 cells expressing wild type full-length ErbB3 served as a positive control.

[6] = target: T1, ErbB3 receptor, wild type full length, …; assay: cell-based or functional assay
[7] = target: T2, ErbB3 as used in the surface plasmon …; assay: Kinetic Exclusion Assay (KinExA); KinExA
[8] = target: T2, ErbB3 as used in the surface plasmon …; assay: surface plasmon resonance (Flexchip assay); Flexchip SPR, not KinExA
[9] = target: T4, full-length ErbB3 D93A mutant on CHO K1 cells (human, UniProt P21860 20-1342); assay: FACS on CHO K1 cells stably expressing full-length ErbB3 D93A; Ab #6 directly labelled with Alexa 488 (FL1)
T4 construct: whole, on cells
Description: as §4

[10] = target: T2, ErbB3 as used in the surface plasmon …; assay: Kinetic Exclusion Assay (KinExA); KinExA, not Flexchip SPR
[11] = target: T5, full-length ErbB3 Y104A mutant on CHO K1 cells (human, UniProt P21860 20-1342); assay: FACS on CHO K1 cells stably expressing full-length ErbB3 Y104A; Ab #6 directly labelled with Alexa 488 (FL1)
T5 construct: whole, on cells; Numbering as for m15
Description: as §4

[12] = target: T1, ErbB3 receptor, wild type full length, …; assay: flow cytometry on MALME-3M cells, Alexa 647 goat anti-human IgG, one-site binding fit; remark: listed apart in the source
Protocol: as §1, §2, §3

[13] = target: recombinant human EGFR (coated on ELISA plate) (human, UniProt P00533 25-645, limits assumed); assay: ELISA on plate-coated protein, HRP anti-human IgG, chemiluminescence
Protocol: (§5) Specifically, 96-well Nunc Maxisorb plates were coated with 50 μl of 5 μg/ml protein (recombinant human ErbB3, recombinant human EGFR or unrelated protein (BSA)) and incubated overnight at room temperature. The next morning, plates were washed 3 times with 1000 μl/well of PBST (0.05% Tween-20) in the BioTek plate washer. The wells were blocked for 1 hr at room temperature with 2% BSA in PBS. The plates were washed 3 times with 1000 μl/well of PBST (0.05% Tween-20) in the BioTek plate washer. […] All samples were run in duplicate and incubated for 2 hrs at 4° C. on a plate shaker. The plates were washed plates 3 times with 1000 μl/well of PBST (0.05% Tween-20) in the BioTek plate washer. 50 μl of human IgG detection antibody (HRP conjugated (Bethyl Inc; 1:75000 dilution in 2% BSA, PBST)) was added and the plates were incubated for 1 hr at room temperature. The plates were washed plate 3 times with 1000 μl/well of PBST (0.05% Tween-20) in the BioTek plate washer. 50 μL of Supersignal Pico ELISA substrate was added and the plate was read on the Fusion plate reader. The data was analyzed using the EXCEL program. Duplicate samples were averaged and the error bars represent the standard deviation between the two replicates.

[14] = target: bovine serum albumin (BSA), unrelated protein control (bovine, UniProt P02769 25-607); assay: as above
Chain of bovine serum albumin (BSA), unrelated protein control (P02769 25-607 limits assumed): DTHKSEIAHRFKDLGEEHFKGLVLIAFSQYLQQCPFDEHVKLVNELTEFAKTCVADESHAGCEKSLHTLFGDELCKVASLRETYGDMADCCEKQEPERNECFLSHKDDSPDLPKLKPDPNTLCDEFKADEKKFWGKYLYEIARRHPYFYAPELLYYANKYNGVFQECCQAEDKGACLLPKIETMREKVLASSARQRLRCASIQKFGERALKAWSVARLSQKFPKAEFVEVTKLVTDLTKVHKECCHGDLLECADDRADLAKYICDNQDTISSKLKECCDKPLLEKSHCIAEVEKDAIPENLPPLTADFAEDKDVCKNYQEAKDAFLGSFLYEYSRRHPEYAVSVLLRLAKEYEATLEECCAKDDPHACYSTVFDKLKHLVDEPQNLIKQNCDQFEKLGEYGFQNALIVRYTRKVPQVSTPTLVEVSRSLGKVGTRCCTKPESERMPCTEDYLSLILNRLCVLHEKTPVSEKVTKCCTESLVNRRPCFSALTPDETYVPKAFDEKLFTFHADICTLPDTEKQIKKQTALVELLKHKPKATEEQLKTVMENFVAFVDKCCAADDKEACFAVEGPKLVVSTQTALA
Protocol: as §5

[15] = target: T6, TGF-α (control in ELISA) (UniProt P01135 40-89); assay: as above
T6 construct: also called transforming growth factor-α
Protocol: as §5

[16] = target: T1, ErbB3 receptor, wild type full length, …; assay: flow cytometry on MALME-3M cells; Fab at about 500 nM; goat anti-human Alexa 647 secondary antibody
[17] = target: T7, EGFR (ErbB1) on ADRr cells (human, UniProt P00533 25-1210); assay: flow cytometry on ADRr cells, biotinylated BTC + streptavidin-PE; BTC concentration not printed on the sheet (legend paragraph 39 names 10 nM)
T7 construct: whole, on cells
Protocol: (§6) Cells were then washed twice with 500 μl BD stain buffer and incubated with 100 μl of a 1:200 dilution of streptavidin-PE (PE=phycoerythrin) (Invitrogen) in BD stain buffer for 45 minutes. Finally, cells were washed twice, resuspended in 300 μl of BD stain buffer and analyzed in a FACScalibur flow cytometer. […] To assess background staining from the streptavidin-PE conjugate, cells were incubated with 100 μl of a 1:200 dilution of streptavidin-PE only for 45 minutes.

[18] = target: T1, ErbB3 receptor, wild type full length, …; assay: flow cytometry on MALME-3M cells (ErbB1 negative, ErbB3 positive), biotinylated BTC + streptavidin-PE
Protocol: as §6

B2: Antibody #3 (Ab #3), human anti-ErbB3 antibody (antibody, V domains shown)
VH: EVQLLESGGGLVQPGGSLRLSCAASGFTFSAYNMRWVRQAPGKGLEWVSVIYPSGGATRYADSVKGRFTISRDNSKNTLYLQMNSLRAEDTAVYYCARGYYYYGMDVWGQGTLVTVSS
VL: QSVLTQPPSASGTPGQRVTISCSGSDSNIGRNYIYWYQQFPGTAPKLLIYRNNQRPSGVPDRISGSKSGTSASLAISGLRSEDEAEYHCGTWDDSLSGPVFGGGTKLTVL
- Kd [2]: ~1.3 nM
- Kd [3]: ~8 nM
- EC50 (read off the curve) [4]: ~8 nM

B4: Ab #6, IgG2 isotype (antibody, V domains shown)
VH: EVQLLESGGGLVQPGGSLRLSCAASGFTFSHYVMAWVRQAPGKGLEWVSSISSSGGWTLYADSVKGRFTISRDNSKNTLYLQMNSLRAEDTAVYYCTRGLKMATIFDYWGQGTLVTVSS
VL: QSALTQPASVSGSPGQSITISCTGTSSDVGSYNVVSWYQQHPGKAPKLIIYEVSQRPSGVSNRFSGSKSGNTASLTISGLQTEDEADYYCCSYAGSSIFVIFGGGTKVTVL
notes: Human IgG2; also called IgG2 isotype of Ab #6
- binding result [13]: no binding (tested: 1000 nM)
- binding result [14]: no binding (tested: 1000 nM)
- binding result [15]: no binding (tested: 1000 nM)

B5: Ab#14 (Fab, V domains shown)
VH: EVQLLESGGGLVQPGGSLRLSCAASGFTFSAYGMGWVRQAPGKGLEWVSYISPSGGHTKYADSVKGRFTISRDNSKNTLYLQMNSLRAEDTAVYYCAKVLETGLLVDAFDIWGQGTMVTVSS
VL: QYELTQPPSVSVYPGQTASITCSGDQLGSKFVSWYQQRPGQSPVLVMYKDKRRPSEIPERFSGSNSGNTATLTISGTQAIDEADYYCQAWDSSTYVFGTGTKVTVL
notes: also called Fab form of Ab #14; MM 121-14
- binding result [16]: binds

B6: betacellulin (BTC) (ligand, UniProt P35070 32-111, looked up)
chain: DGNSTRSPETNGLLCGDPEENCAATTTQSKRKGHFSRCPKQYKHYCIKGRCRFVVAEQTPSCVCDEGYIGARCERVDLFY
modifications: biotinylated (Example 7)
notes: also called biotinylated BTC
- binding result [17]: binds
- binding result [18]: no binding (tested: 500 nM)

More lines, now with the values ahead:

- binding result [1]: binds
B1: biotinylated heregulin EGF (ligand, UniProt Q02297-6 177-241, looked up)
chain: SHLVKCAEKEKTFCVNGGECFMVKDLSNPSRYLCKCPNEFTGDRCQNYVMASFYKHLGIEFMEAE
modifications: also: biotinylated, site not given here
notes: domain: heregulin EGF

- Kd [2]: ~4 nM
- binding result [5]: no binding
- IC50 of inhibition of BTC-induced ErbB3 phosphorylation (ELISA, ADRr cells) [6]: 5.9 nM
- IC50 of inhibition of HRG1-beta-induced ErbB3 phosphorylation (ELISA, ADRr cells) [6]: 2.4 nM
- koff [7]: 0.00011 s⁻¹
- kon [7]: 143000 M⁻¹ s⁻¹
- Kd [8]: ~4 nM
- binding result [9]: no binding
- Kd [10]: 0.769 nM
- binding result [11]: no binding
- EC50 (read off the curve) [12]: 1 to 2 nM
B3: Antibody #6 (Ab #6), human anti-ErbB3 antibody (antibody, V domains shown)
VH: EVQLLESGGGLVQPGGSLRLSCAASGFTFSHYVMAWVRQAPGKGLEWVSSISSSGGWTLYADSVKGRFTISRDNSKNTLYLQMNSLRAEDTAVYYCTRGLKMATIFDYWGQGTLVTVSS
VL: QSALTQPASVSGSPGQSITISCTGTSSDVGSYNVVSWYQQHPGKAPKLIIYEVSQRPSGVSNRFSGSKSGNTASLTISGLQTEDEADYYCCSYAGSSIFVIFGGGTKVTVL
notes: also called antibody number 6; MM121
